Here are results for one molecule from doi:10.1101/2021.10.29.466484, “Clamping of DNA shuts the condensin neck gate” (bioRxiv, 2021).

For one test, the target named is T1, Smc4 (S. cerevisiae, UniProt Q12267 1-1418).
T1 construct: Smc4, SMC subunit of budding yeast (S. cerevisiae) condensin, wild type; Only the head domain and proximal coiled coil are resolved in the maps; also called SMC4-3xStrepII
T1 sequence: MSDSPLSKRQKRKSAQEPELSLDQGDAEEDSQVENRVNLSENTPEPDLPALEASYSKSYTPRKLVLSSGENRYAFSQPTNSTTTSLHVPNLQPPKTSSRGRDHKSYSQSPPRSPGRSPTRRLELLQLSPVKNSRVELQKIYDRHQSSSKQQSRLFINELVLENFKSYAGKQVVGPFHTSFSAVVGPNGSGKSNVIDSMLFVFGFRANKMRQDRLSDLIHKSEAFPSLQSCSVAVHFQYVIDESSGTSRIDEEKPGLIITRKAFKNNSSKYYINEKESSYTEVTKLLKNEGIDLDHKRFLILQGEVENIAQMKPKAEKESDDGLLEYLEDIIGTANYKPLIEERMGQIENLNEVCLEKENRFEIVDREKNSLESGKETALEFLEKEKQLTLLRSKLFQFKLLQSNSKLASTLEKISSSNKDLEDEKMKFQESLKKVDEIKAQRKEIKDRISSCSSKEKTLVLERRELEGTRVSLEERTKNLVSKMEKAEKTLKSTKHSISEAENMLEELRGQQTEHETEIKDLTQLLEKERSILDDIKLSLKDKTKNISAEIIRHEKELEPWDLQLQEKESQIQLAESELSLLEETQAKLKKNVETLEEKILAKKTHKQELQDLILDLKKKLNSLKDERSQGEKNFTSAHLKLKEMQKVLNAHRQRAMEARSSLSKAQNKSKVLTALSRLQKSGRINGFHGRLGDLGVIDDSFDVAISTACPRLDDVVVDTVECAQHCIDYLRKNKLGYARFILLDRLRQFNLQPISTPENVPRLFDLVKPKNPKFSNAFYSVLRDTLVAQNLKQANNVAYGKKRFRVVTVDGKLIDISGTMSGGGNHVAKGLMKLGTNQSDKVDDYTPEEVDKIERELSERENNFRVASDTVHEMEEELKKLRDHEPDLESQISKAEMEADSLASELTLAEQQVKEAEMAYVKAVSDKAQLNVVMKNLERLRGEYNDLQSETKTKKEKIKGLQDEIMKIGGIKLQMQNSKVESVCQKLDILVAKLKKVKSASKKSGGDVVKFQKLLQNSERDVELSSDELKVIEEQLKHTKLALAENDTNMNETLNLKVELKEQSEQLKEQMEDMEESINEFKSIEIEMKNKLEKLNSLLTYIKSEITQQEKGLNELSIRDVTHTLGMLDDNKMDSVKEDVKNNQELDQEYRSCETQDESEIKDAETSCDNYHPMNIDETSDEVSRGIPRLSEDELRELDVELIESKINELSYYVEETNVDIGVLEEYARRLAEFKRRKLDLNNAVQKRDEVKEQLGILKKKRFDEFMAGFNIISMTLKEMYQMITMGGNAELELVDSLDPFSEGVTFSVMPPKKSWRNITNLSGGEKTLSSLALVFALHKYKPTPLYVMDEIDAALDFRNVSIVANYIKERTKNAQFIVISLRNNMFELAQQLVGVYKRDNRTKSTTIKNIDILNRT
The experiment in a line: cryo-EM structure; condensin pentamer (Smc2, Smc4, Brn1, Ycs4, Ycg1) with 80 bp dsDNA, ADP and BeF3; separate maps of the head module and of Ycg1-DNA from one dataset. Particulars: both partners purified.

The target in a further test is T2, Ycg1 (S. cerevisiae, UniProt Q06680 1-1035).
T2 construct: Ycg1, HAWK subunit of budding yeast (S. cerevisiae) condensin, wild type
T2 sequence: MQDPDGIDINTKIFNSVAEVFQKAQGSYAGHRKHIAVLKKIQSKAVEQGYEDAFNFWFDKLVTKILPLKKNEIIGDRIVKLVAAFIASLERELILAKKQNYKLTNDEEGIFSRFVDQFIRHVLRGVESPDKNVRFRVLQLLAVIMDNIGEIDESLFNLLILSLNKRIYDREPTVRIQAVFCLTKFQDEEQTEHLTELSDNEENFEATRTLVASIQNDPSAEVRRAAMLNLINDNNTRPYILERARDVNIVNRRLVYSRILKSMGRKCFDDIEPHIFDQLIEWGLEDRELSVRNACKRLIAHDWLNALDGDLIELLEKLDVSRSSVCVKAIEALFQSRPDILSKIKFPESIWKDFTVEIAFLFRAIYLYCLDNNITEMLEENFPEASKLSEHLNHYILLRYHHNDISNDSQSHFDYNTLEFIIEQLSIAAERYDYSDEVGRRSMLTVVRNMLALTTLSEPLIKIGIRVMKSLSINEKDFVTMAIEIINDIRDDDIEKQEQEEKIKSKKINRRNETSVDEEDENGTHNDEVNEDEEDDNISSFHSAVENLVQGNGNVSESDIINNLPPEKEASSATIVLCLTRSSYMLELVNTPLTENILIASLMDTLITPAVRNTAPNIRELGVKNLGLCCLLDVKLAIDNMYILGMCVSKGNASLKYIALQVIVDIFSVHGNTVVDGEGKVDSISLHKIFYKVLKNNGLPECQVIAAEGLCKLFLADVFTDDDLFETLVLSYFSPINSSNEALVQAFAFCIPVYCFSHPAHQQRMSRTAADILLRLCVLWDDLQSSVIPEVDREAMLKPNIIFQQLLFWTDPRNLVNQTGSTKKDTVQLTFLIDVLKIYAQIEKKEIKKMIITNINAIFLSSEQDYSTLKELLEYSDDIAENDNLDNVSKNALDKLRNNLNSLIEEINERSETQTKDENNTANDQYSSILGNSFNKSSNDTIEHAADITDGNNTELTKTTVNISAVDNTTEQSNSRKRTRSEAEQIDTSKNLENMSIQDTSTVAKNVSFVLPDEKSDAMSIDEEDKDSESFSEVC
Described as above. The following applies: both partners purified.

B1: Brn1 (natural protein, S. cerevisiae)
chain: MTTQLRYENNDDDERVEYNLFTNRSTMMANFEEWIKMATDNKINSRNSWNFALIDYFYDLDVLKDGENNINFQKASATLDGCIKIYSSRVDSVTTETGKLLSGLAQRKTNGASNGDDSNGGNGEGLGGDSDEANIEIDPLTGMPISNDPDVNNTRRRVYNRVLETTLVEFETIKMKELDQELIIDPLFKKALVDFDEGGAKSLLLNTLNIDNTARVIFDASIKDTQNVGQGKLQRKEEELIERDSLVDDENEPSQSLISTRNDSTVNDSVISAPSMEDEILSLGMDFIKFDQIAVCEISGSIEQLRNVVEDINQAKDFIENVNNRFDNFLTEEELQAAVPDNAEDDSDGFDMGMQQELCYPDENHDNTSHDEQDDDNVNSTTGSIFEKDLMAYFDENLNRNWRGREHWKVRNFKKANLVNKESDLLEETRTTIGDTTDKNTTDDKSMDTKKKHKQKKVLEIDFFKTDDSFEDKVFASKGRTKIDMPIKNRKNDTHYLLPDDFHFSTDRITRLFIKPGQKMSLFSHRKHTRGDVSSGLFEKSTVSANHSNNDIPTIADEHFWADNYERKEQEEKEKEQSKEVGDVVGGALDNPFEDDMDGVDFNQAFEGTDDNEEASVKLDLQDDEDHKFPIRENKVTYSRVSKKVDVRRLKKNVWRSINNLIQEHDSRKNREQSSNDSETHTEDESTKELKFSDIIQGISKMYSDDTLKDISTSFCFICLLHLANEHGLQITHTENYNDLIVNYEDLATTQAAS
notes: Brn1, kleisin subunit of budding yeast (S. cerevisiae) condensin, wild type; also called kleisin Brn1; BRN1-HA3-His12
On to B1, for which the binding result with Smc4 and with Ycg1 was “binds” in each case.
